Laboratory results from patent US9629804B2, “Lipid formulations for delivery of messenger RNA” (Shire Human Genetic Therapies, Inc., priority 2013, dated 2017).

Tested on: BHK-21 cells
Test: hSMN-1 western blot of BHK-21 cells transfected with hSMN mRNA
Type: cell-based
Conditions: one microgram mRNA, Lipofectamine 2000, 16-18 hours post-transfection
Experimental: Standard western blot procedures were followed employing various antibodies that recognizes hSMN protein, such as: (A) anti-SMN 4F11 antibody at 1:1,000 dilution; (B) Pierce PA5-27309a-SMN antibody at 1:1,000 dilution; and (C) LSBio C138149a-SMN antibody at 1:1,000 dilution. For each experiment one microgram of hSMN mRNA was transfected into ˜1×10^6 BHK-21 cells using Lipofectamine 2000. Cells were treated with OptiMem and harvested 16-18 hours post-transfection. Cell lysates were harvested, processed and loaded on to an 8-16% Tris Glycine gel. The gel was transferred using a PVDF membrane and treated with the respective primary antibody. Goat anti-mouse HRP antibody was used as the secondary antibody at 1:10,000 dilution for 45 minutes at room temperature followed by washing and development.

B1: hSMN mRNA: codon-optimized human Survival of Motor Neuron-1 messenger RNA (SEQ ID NO: 4), in vitro transcribed, Cap 1, poly(A) tail (nucleic acid)
chain: GGACAGAUCGCCUGGAGACGCCAUCCACGCUGUUUUGACCUCCAUAGAAGACACCGGGACCGAUCCAGCCUCCGCGGCCGGGAACGGUGCAUUGGAACGCGGAUUCCCCGUGCCAAGAGUGACUCACCGUCCUUGACACGAUGGCCAUGAGCAGCGGAGGCAGCGGCGGAGGAGUGCCCGAGCAGGAGGACAGCGUGCUGUUCAGGAGAGGCACCGGCCAGAGCGAUGACAGCGAUAUCUGGGACGAUACCGCUCUGAUCAAGGCCUACGACAAGGCCGUGGCCAGCUUCAAGCACGCCCUGAAAAACGGCGACAUCUGCGAGACCAGCGGCAAGCCCAAGACAACCCCCAAGAGAAAGCCCGCCAAGAAGAAUAAGAGCCAGAAAAAGAACACCGCCGCCAGCCUGCAGCAGUGGAAGGUGGGCGACAAGUGCAGCGCCAUCUGGAGCGAGGACGGCUGCAUCUACCCCGCCACCAUCGCCAGCAUCGACUUCAAGAGAGAGACCUGCGUGGUCGUGUACACCGGCUACGGCAACAGAGAGGAGCAGAACCUGAGCGACCUGCUGAGCCCCAUUUGUGAGGUGGCCAAUAACAUCGAACAGAACGCCCAGGAGAACGAGAAUGAAAGCCAGGUGAGCACCGACGAGAGCGAGAACAGCAGAUCUCCUGGCAACAAGAGCGACAACAUCAAGCCUAAGUCUGCCCCUUGGAACAGCUUCCUGCCCCCUCCUCCACCCAUGCCCGGACCCAGACUGGGACCCGGAAAACCUGGCCUGAAGUUCAACGGACCACCUCCCCCUCCACCUCCUCCCCCACCUCAUCUCCUGAGCUGCUGGCUGCCACCCUUCCCCAGCGGACCCCCUAUCAUCCCACCACCCCCUCCCAUCUGCCCCGACAGCCUGGACGACGCCGAUGCCCUGGGCAGCAUGCUGAUCAGCUGGUACAUGAGCGGCUACCACACAGGAUACUACAUGGGCUUCAGACAGAACCAGAAGGAGGGCAGAUGCUCCCACUCCCUGAACUGACGGGUGGCAUCCCUGUGACCCCUCCCCAGUGCCUCUCCUGGCCCUGGAAGUUGCCACUCCAGUGCCCACCAGCCUUGUCCUAAUAAAAUUAAGUUGCAUCAAAGCU
modifications: Cap 1, poly(A) tail
western blot signal for hSMN-1 protein in transfected BHK-21 cells: strong signal for hSMN-1
